Test results taken from article PMC12501251 (Communications Biology, 2025).

Key:
Assay in all cases: ELISA
[1] = target: N8 NA (head domain plus stalk region) from A/gyrfalcon/41088-6/2014 (H5N8) (Influenza A virus …, UniProt A0A0C4WVM3, strain)
[2] = target: T1, N2 NA head domain from A/Japan/305/1957 (H2N2) (Influenza A virus A/Japan/305/1957 …, strain)
T1 chain: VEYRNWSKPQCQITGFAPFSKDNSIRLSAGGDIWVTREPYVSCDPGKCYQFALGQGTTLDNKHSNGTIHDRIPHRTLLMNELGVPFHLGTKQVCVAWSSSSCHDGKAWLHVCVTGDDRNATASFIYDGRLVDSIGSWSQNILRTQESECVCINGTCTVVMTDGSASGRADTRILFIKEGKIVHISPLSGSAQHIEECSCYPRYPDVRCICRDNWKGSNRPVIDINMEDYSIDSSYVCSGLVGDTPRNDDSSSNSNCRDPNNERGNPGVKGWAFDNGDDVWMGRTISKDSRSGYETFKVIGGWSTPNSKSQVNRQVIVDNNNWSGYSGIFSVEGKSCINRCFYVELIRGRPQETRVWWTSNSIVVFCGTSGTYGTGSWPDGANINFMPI

[3] = target: N3 NA (head domain plus stalk region) from A/swine/Missouri/2124514/2006 (H2N3) (Influenza A virus …, UniProt A9YN63, strain)
[4] = target: N1 NA head domain (residue 82-469) from A/Brevig Mission/1/1918 (H1N1) (Influenza A virus A/Brevig …, UniProt Q9IGQ6)

Measured: binding result

Sequence of N1 NA head domain (residue 82-469) from A/Brevig Mission/1/1918 (H1N1) (Q9IGQ6 82-469): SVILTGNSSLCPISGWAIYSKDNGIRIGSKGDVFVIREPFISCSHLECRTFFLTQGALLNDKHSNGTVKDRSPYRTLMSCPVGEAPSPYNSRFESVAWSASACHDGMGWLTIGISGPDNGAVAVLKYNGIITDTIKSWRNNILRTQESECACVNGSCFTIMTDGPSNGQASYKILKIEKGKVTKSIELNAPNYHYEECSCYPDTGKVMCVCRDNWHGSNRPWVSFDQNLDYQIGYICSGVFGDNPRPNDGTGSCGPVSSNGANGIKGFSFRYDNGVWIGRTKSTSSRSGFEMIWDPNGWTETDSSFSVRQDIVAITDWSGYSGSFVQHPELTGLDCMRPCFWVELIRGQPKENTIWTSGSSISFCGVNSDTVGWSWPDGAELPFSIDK

B1: 1122A11 (human IgG1 mAb) (antibody, V domains shown)
VH: QVQLVQSGAEVSKPGASVKVSCKASGYSFTSQSLGWVRQAPGQGLEWMGIINPSGGITNYAHKFQGRVTMTRDTSTSTVYMELSSLRSEDTALYYCVRDLSHYNEVGHDRAYYYGMDIWGQGTTVTVSS
VL: SYELIQPPSVSVSPGQTASITCSGDKLGKKYTCWYQQKPGQSPVLVIYQDNKRPSGIPERFSGSNSGNTATLTISGTQAMDEADYYCQAWDSSAVVFGGGTKLTVL
binds: [1] | [2] | [3] | [4]
